Experimental data: PMC7266990

Legend:
Conditions in all cases: SPR per cited protocol (Gsaller 2016; buffer not given), CBC 3.13-200 nM, 1:1 model with mass transport; SEC: 20 mM Tris/HCl, 150 mM NaCl, 1 mM DTT, pH 7.5
[1] = biological target: An_CBC HapE P88L (Aspergillus nidulans) (UniProt G5EAZ0+Q5B5Z6+Q5AYY8); experiment: SPR
[2] = biological target: Afu_CBC HapE P88L (core) P88L (Aspergillus fumigatus) (UniProt Q4WDM9); experiment: SPR
[3] = biological target: An_CBC wt (HapB/HapC/HapE core) (Aspergillus nidulans) (UniProt G5EAZ0+Q5B5Z6+Q5AYY8); experiment: SPR
[4] = biological target: Afu_CBC HapE P88L (SPR co-injection construct);HapX bZIP peptide P88L (Aspergillus fumigatus;Aspergillus fumigatus) (UniProt Q4WDM9+Q4WER3); experiment: SPR co-injection

| Sequence | Kd [1] | Kd [2] | Kd [3] | binding signal (fold half-life vs binary P88L CBC-DNA) [4] |
| --- | --- | --- | --- | --- |
| ACCCGAGCCAATCAGAGCGAAGTGA (double strand) [An_cccA 25 bp SPR duplex] | 2000 nM | 2000 nM | – | – |
| GAATTGACCAATCAGAGGTAGGATG (double strand) [An_cycA 25 bp SPR duplex] | 116 nM | 100 nM | 0.83 nM | – |
| AAATCCACCAATCAACGCCTCCGTG (double strand) [Afu_cccA 25 bp SPR duplex] | – | 429 nM | – | – |
| AAATCCACCAATCAACGCCTCCGTGATTGTCAGCAAT (double strand) [Afu_cccA SPR co-injection duplex (CBC and HapX sites)] | – | – | – | 7 |
